Biological target: T1, soluble human FcRn complexed with β2-microglobulin (human, UniProt P61769 21-119, limits assumed)
T1 construct: also called hFcRn
Assay: Biacore SPR, pH 7.0;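 note: test antibodies captured on a Protein L chip with human FcRn flowed over as analyte, KD obtained as the ratio of dissociation to association rate constants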

Kd	Binder
35 nM	IgG1-F1044 (antibody, EU numbering; copies: 2 + 2) heavy: QVQLQESGPGLVKPSETLSLTCAVSGHSISHDHAWSWVRQPPGEGLEWIGFISYSGITNYNPSLQGRVTISRDNSKNTLYLQMNSLRAEDTAVYYCARSLARTTAMDYWGEGTLVTVSSASTKGPSVFPLAPSSKSTSGGTAALGCLVKDYFPEPVTVSWNSGALTSGVHTFPAVLQSSGLYSLSSVVTVPSSSLGTQTYICNVNHKPSNTKVDKKVEPKSCDKTHTCPPCPAPELKGGPKVFLFPPKPKDVLYISRTPEVTCVVVDVSHEDPEVKFNWYVDGVEVHNAKTKPREEQYNSTYRVVSVLQPLHADWLNGKEYKCKVSNKALPAPIEKTISKAKGQPREPQVYTLPPSRDELTKNQVSLTCLVKGFYPSDIAVEWESNGQPENNYKTTPPVLDSDGSFFLYSKLTVDKSRWQQGNVFSCSVMHEALHYHYTQKSLSLSP light: not shown
3.5 nM	IgG1-F1050 (antibody, EU numbering; copies: 2 + 2) heavy: QVQLQESGPGLVKPSETLSLTCAVSGHSISHDHAWSWVRQPPGEGLEWIGFISYSGITNYNPSLQGRVTISRDNSKNTLYLQMNSLRAEDTAVYYCARSLARTTAMDYWGEGTLVTVSSASTKGPSVFPLAPSSKSTSGGTAALGCLVKDYFPEPVTVSWNSGALTSGVHTFPAVLQSSGLYSLSSVVTVPSSSLGTQTYICNVNHKPSNTKVDKKVEPKSCDKTHTCPPCPAPELLGGPSVFLFPPKPKDVLYISRTPEVTCVVVDVSHEDPEVKFNWYVDGVEVHEAKTKPREEQYNSTYRVVSVLQPLHADWLNGKEYKCKVSNKALPAPIEKTISKAKGQPREPQVYTLPPSRDELTKNQVSLTCLVKGFYPSDIAVEWESNGQPENNYKTTPPVLDSDGSFFLYSKLTVDKSRWQQGNVFSCSVIHEALHYHVTQKSLSLSP light: not shown
42.3 nM	IgG1-F1053 (antibody, EU numbering; copies: 2 + 2) heavy: QVQLQESGPGLVKPSETLSLTCAVSGHSISHDHAWSWVRQPPGEGLEWIGFISYSGITNYNPSLQGRVTISRDNSKNTLYLQMNSLRAEDTAVYYCARSLARTTAMDYWGEGTLVTVSSASTKGPSVFPLAPSSKSTSGGTAALGCLVKDYFPEPVTVSWNSGALTSGVHTFPAVLQSSGLYSLSSVVTVPSSSLGTQTYICNVNHKPSNTKVDKKVEPKSCDKTHTCPPCPAPELRGGPKVFLFPPKPKDVLYISRTPEVTCVVVDVSHEDPEVKFNWYVDGVEVHNAKTKPREEQYNSTYRVVSVLQVLHADWLNGKEYKCKVSNKALPAPIEKTISKAKGQPREPQVYTLPPSRDELTKNQVSLTCLVKGFYPSDIAVEWESNGQPENNYKTTPPVLDSDGSFFLYSKLTVDKSRWQQGNVFSCSVMHEALHYHVTQKSLSLSP light: not shown
99 nM	IgG1-F1048 (antibody, EU numbering; copies: 2 + 2) heavy: QVQLQESGPGLVKPSETLSLTCAVSGHSISHDHAWSWVRQPPGEGLEWIGFISYSGITNYNPSLQGRVTISRDNSKNTLYLQMNSLRAEDTAVYYCARSLARTTAMDYWGEGTLVTVSSASTKGPSVFPLAPSSKSTSGGTAALGCLVKDYFPEPVTVSWNSGALTSGVHTFPAVLQSSGLYSLSSVVTVPSSSLGTQTYICNVNHKPSNTKVDKKVEPKSCDKTHTCPPCPAPELKGGPKVFLFPPKPKDTLYISRTPEVTCVVVDVSHEDPEVKFNWYVDGVEVHNAKTKPREEQYNSTYRVVSVLAVLHHDWLNGKEYKCKVSNKALPAPIEKTISKAKGQPREPQVYTLPPSRDELTKNQVSLTCLVKGFYPSDIAVEWESNGQPENNYKTTPPVLDSDGSFFLYSKLTVDKSRWQQGNVFSCSVMHEALHYHVTQKSLSLSP light: not shown
3.9 nM	IgG1-F1051 (antibody, EU numbering; copies: 2 + 2) heavy: QVQLQESGPGLVKPSETLSLTCAVSGHSISHDHAWSWVRQPPGEGLEWIGFISYSGITNYNPSLQGRVTISRDNSKNTLYLQMNSLRAEDTAVYYCARSLARTTAMDYWGEGTLVTVSSASTKGPSVFPLAPSSKSTSGGTAALGCLVKDYFPEPVTVSWNSGALTSGVHTFPAVLQSSGLYSLSSVVTVPSSSLGTQTYICNVNHKPSNTKVDKKVEPKSCDKTHTCPPCPAPELRGGPKVFLFPPKPKDVLYISRTPEVTCVVVDVSHEDPEVKFNWYVDGVEVHEAKTKPREEQYNSTYRVVSVLQPLHADWLNGKEYKCKVSNKALPAPIEKTISKAKGQPREPQVYTLPPSRDELTKNQVSLTCLVKGFYPSDIAVEWESNGQPENNYKTTPPVLDSDGSFFLYSKLTVDKSRWQQGNVFSCSVIHEALHYHVTQKSLSLSP light: not shown
3.2 nM	IgG1-F1052 (antibody, EU numbering; copies: 2 + 2) heavy: QVQLQESGPGLVKPSETLSLTCAVSGHSISHDHAWSWVRQPPGEGLEWIGFISYSGITNYNPSLQGRVTISRDNSKNTLYLQMNSLRAEDTAVYYCARSLARTTAMDYWGEGTLVTVSSASTKGPSVFPLAPSSKSTSGGTAALGCLVKDYFPEPVTVSWNSGALTSGVHTFPAVLQSSGLYSLSSVVTVPSSSLGTQTYICNVNHKPSNTKVDKKVEPKSCDKTHTCPPCPAPELRGGPKVFLFPPKPKDTLYISRTPEVTCVVVDVSHEDPEVKFNWYVDGVEVHEAKTKPREEQYNSTYRVVSVLQPLHADWLNGKEYKCKVSNKALPAPIEKTISKAKGQPREPQVYTLPPSRDELTKNQVSLTCLVKGFYPSDIAVEWESNGQPENNYKTTPPVLDSDGSFFLYSKLTVDKSRWQQGNVFSCSVIHEALHYHVTQKSLSLSP light: not shown
4.5 nM	IgG1-F1046 (antibody, EU numbering; copies: 2 + 2) heavy: QVQLQESGPGLVKPSETLSLTCAVSGHSISHDHAWSWVRQPPGEGLEWIGFISYSGITNYNPSLQGRVTISRDNSKNTLYLQMNSLRAEDTAVYYCARSLARTTAMDYWGEGTLVTVSSASTKGPSVFPLAPSSKSTSGGTAALGCLVKDYFPEPVTVSWNSGALTSGVHTFPAVLQSSGLYSLSSVVTVPSSSLGTQTYICNVNHKPSNTKVDKKVEPKSCDKTHTCPPCPAPELKGGPKVFLFPPKPKDVLYISRTPEVTCVVVDVSHEDPEVKFNWYVDGVEVHEAKTKPREEQYNSTYRVVSVLQPLHADWLNGKEYKCKVSNKALPAPIEKTISKAKGQPREPQVYTLPPSRDELTKNQVSLTCLVKGFYPSDIAVEWESNGQPENNYKTTPPVLDSDGSFFLYSKLTVDKSRWQQGNVFSCSVMHEALHYHVTQKSLSLSP light: not shown
25 nM	IgG1-F1045 (antibody, EU numbering; copies: 2 + 2) heavy: QVQLQESGPGLVKPSETLSLTCAVSGHSISHDHAWSWVRQPPGEGLEWIGFISYSGITNYNPSLQGRVTISRDNSKNTLYLQMNSLRAEDTAVYYCARSLARTTAMDYWGEGTLVTVSSASTKGPSVFPLAPSSKSTSGGTAALGCLVKDYFPEPVTVSWNSGALTSGVHTFPAVLQSSGLYSLSSVVTVPSSSLGTQTYICNVNHKPSNTKVDKKVEPKSCDKTHTCPPCPAPELKGGPKVFLFPPKPKDTLYISRTPEVTCVVVDVSHEDPEVKFNWYVDGVEVHNAKTKPREEQYNSTYRVVSVLQPLHADWLNGKEYKCKVSNKALPAPIEKTISKAKGQPREPQVYTLPPSRDELTKNQVSLTCLVKGFYPSDIAVEWESNGQPENNYKTTPPVLDSDGSFFLYSKLTVDKSRWQQGNVFSCSVMHEALHYHYTQKSLSLSP light: not shown
3.4 nM	IgG1-F1047 (antibody, EU numbering; copies: 2 + 2) heavy: QVQLQESGPGLVKPSETLSLTCAVSGHSISHDHAWSWVRQPPGEGLEWIGFISYSGITNYNPSLQGRVTISRDNSKNTLYLQMNSLRAEDTAVYYCARSLARTTAMDYWGEGTLVTVSSASTKGPSVFPLAPSSKSTSGGTAALGCLVKDYFPEPVTVSWNSGALTSGVHTFPAVLQSSGLYSLSSVVTVPSSSLGTQTYICNVNHKPSNTKVDKKVEPKSCDKTHTCPPCPAPELKGGPKVFLFPPKPKDTLYISRTPEVTCVVVDVSHEDPEVKFNWYVDGVEVHEAKTKPREEQYNSTYRVVSVLQPLHADWLNGKEYKCKVSNKALPAPIEKTISKAKGQPREPQVYTLPPSRDELTKNQVSLTCLVKGFYPSDIAVEWESNGQPENNYKTTPPVLDSDGSFFLYSKLTVDKSRWQQGNVFSCSVMHEALHYHVTQKSLSLSP light: not shown

— patent US20200199241A1 (Chugai, published 2020)
